According to US9206411B2, “Staphylococcal Phage2638A endolysin amidase domain is lytic for Staphylococcus aureus” (priority 2012, dated 2015):

Key:
[1] = tested on: S. aureus Tanji 49; experiment: Plate lysis, susceptibility of strains to 2638A (Table 1); format: cell-based
Experimental: (§1) Purified proteins for each construct were diluted in sterile nickel column elution buffer, and 6 μL of lysostaphin (11 μg) or the constructs (0.2 nmoles or ˜11 μg for the repaired construct 2638A 1-180Mut-486) was spotted onto a freshly spread lawn of S. aureus strain NRS119 (SA LinR #12; linezolid resistant) growing cells that had air dried for 30 min on tryptic soy agar (TSA) plates. L=[…] Lysostaphin (Sigma); Spot 1=11 μg; all other constructs are 0.2 nmoles (˜11 μg for the repaired construct 2638A 1-180Mut-486) […]. The spotted plates were air dried for 10 min in a laminar flow hood and incubated overnight in a 37° C. environment. Scoring of the cleared spots occurred within 20 h of plating the cells.
(§2) The Plate Lysis assay results (FIG. 3) agree with the turbidity reduction assay. Each of the M23 peptidase dependent or SH3b-truncating constructs showing weak activity on S. aureus strain Newman strain. In addition to the Plate Lysis results in FIG. 3, we have also examined numerous strains with reduced but real lytic activity (Table 1). However, the plate lysis results with the 2638A endolysin constructs are extremely novel in appearance. Plate lysis results are routinely visualized as a discrete cleared spot on a lawn of bacteria after a single overnight of culture. […] In contrast, the 2638A endolysin is unique in that sometimes this cleared zone requires multiple days to appear. […] Thus, there is also a likelihood that the enzyme might work preferentially on late log or stationary phase cells in the plate lysis assay, as the 3 day old culture is likely not growing as quickly as the freshly-plated overnight culture.

[2] = tested on: S. xylosus; experiment: as above; format: cell-based
Experimental: as §1, §2

[3] = tested on: S. aureus Tanji 3; experiment: as above; format: cell-based
Experimental: as §1, §2

[4] = tested on: S. aureus SA113 ΔtagO; experiment: as above; format: cell-based
Experimental: as §1, §2

[5] = tested on: S. aureus 305; experiment: as above; format: cell-based
Experimental: as §1, §2

[6] = tested on: S. aureus Tanji 48; experiment: as above; format: cell-based
Experimental: as §1, §2

[7] = tested on: S. aureus NRS 385 (MRSA); experiment: as above; format: cell-based
Experimental: as §1, §2

[8] = tested on: S. warneri; experiment: as above; format: cell-based
Experimental: as §1, §2

[9] = tested on: S. aureus SA113; experiment: as above; format: cell-based
Experimental: as §1, §2

[10] = tested on: S. aureus Reynolds (CP5); experiment: as above; format: cell-based
Experimental: as §1, §2

[11] = tested on: S. aureus MN8 Δica; experiment: as above; format: cell-based
Experimental: as §1, §2

[12] = tested on: S. aureus Newman; experiment: as above; format: cell-based
Experimental: as §1, §2

[13] = tested on: S. aureus Newman ΔdltA; experiment: as above; format: cell-based
Experimental: as §1, §2

[14] = tested on: S. aureus NRS 382 (MRSA); experiment: as above; format: cell-based
Experimental: as §1, §2

[15] = tested on: S. aureus Tanji 20; experiment: as above; format: cell-based
Experimental: as §1, §2

[16] = tested on: S. epidermidis; experiment: as above; format: cell-based
Experimental: as §1, §2

[17] = tested on: S. aureus Tanji 28; experiment: as above; format: cell-based
Experimental: as §1, §2

[18] = tested on: S. hyicus; experiment: as above; format: cell-based
Experimental: as §1, §2

[19] = tested on: S. aureus Tanji 9; experiment: as above; format: cell-based
Experimental: as §1, §2

[20] = tested on: S. aureus ANG 133; experiment: as above; format: cell-based
Experimental: as §1, §2

[21] = tested on: S. aureus Tanji 33; experiment: as above; format: cell-based
Experimental: as §1, §2

[22] = tested on: S. aureus Newman ΔtagO; experiment: as above; format: cell-based
Experimental: as §1, §2

[23] = tested on: S. aureus Newman Δica; experiment: as above; format: cell-based
Experimental: as §1, §2

[24] = tested on: S. aureus MN8; experiment: as above; format: cell-based
Experimental: as §1, §2

[25] = tested on: S. aureus Newman srtA::ermB; experiment: as above; format: cell-based
Experimental: as §1, §2

[26] = tested on: S. aureus Tanji 1; experiment: as above; format: cell-based
Experimental: as §1, §2

[27] = tested on: S. aureus ANG 144; experiment: as above; format: cell-based
Experimental: as §1, §2

[28] = tested on: S. aureus Tanji 26; experiment: as above; format: cell-based
Experimental: as §1, §2

[29] = tested on: S. aureus Tanji 2; experiment: as above; format: cell-based
Experimental: as §1, §2

[30] = tested on: MRSA strain NRS382; experiment: Control of systemic MRSA infection in a murine model; format: in vivo, Staphylococcus aureus

B1: 2638A Endolysin: 486 amino acid staphylococcal phage 2638A endolysin (SEQ ID NO:4), C-terminally 6×His-tagged; M23 peptidase, amidase, SH3b domains (protein)
chain: MLTAIDYLTKKGWKISSDPRTYDGYPKNYGYRNYHENGINYDEFCGGYHRAFDVYSNETNDVPAVTSGTVIEANDYGNFGGTFVIRDANDNDWIYGHLQRGSMRFVVGDKVNQGDIIGLQGNSNYYDNPMSVHLHLQLRPKDAKKDEKSQVCSGLAMEKYDITNLNAKQDKSKNGSVKELKHIYSNHIKGNKITAPKPSIQGVVIHNDYGSMTPSQYLPWLYARENNGTHVNGWASVYANRNEVLWYHPTDYVEWHCGNQWANANLIGFEVCESYPGRISDKLFLENEEATLKVAADVMKSYGLPVNRNTVRLHNEFFGTSCPHRSWDLHVGKGEPYTTTNINKMKDYFIKRIKHYYDGGKLEVSKAATIKQSDVKQEVKKQEAKQIVKATDWKQNKDGIWYKAEHASFTVTAPEGIITRYKGPWTGHPQAGVLQKGQTIKYDEVQKFDGHVWVSWETFEGETVYMPVRTWDAKTGKVGKLWGEIKLEHHHHHH
modifications: C-terminal His6 tag; Mutated Phage 2638a
notes: M23 peptidase, amidase, SH3b domains
Susceptibility to lysis by 2638A, day 1 [1]: − (− = >100 pmol) | Susceptibility to lysis by 2638A, day 1 ([2]; day 1): − (− = >100 pmol) | Susceptibility to lysis by 2638A, day 3+ ([2]; day 3+): − (− = >100 pmol) | Susceptibility to lysis by 2638A, day 1 ([3]; day 1): − (− = >100 pmol) | Susceptibility to lysis by 2638A, day 3+ ([3]; day 3+): − (− = >100 pmol) | Susceptibility to lysis by 2638A, day 1 ([4]; day 1): +++ (+++ = 1 pmol) | Susceptibility to lysis by 2638A, day 3+ ([4]; day 3+): +++ (+++ = 1 pmol) | Susceptibility to lysis by 2638A, day 1 ([5]; day 1): − (− = >100 pmol) | Susceptibility to lysis by 2638A, day 3+ ([5]; day 3+): − (− = >100 pmol) | Susceptibility to lysis by 2638A, day 1 ([6]; day 1): − (− = >100 pmol) | Susceptibility to lysis by 2638A, day 3+ ([6]; day 3+): + (+ = 100 pmol) | Susceptibility to lysis by 2638A, day 1 ([7]; day 1): − (− = >100 pmol) | Susceptibility to lysis by 2638A, day 3+ ([7]; day 3+): − (− = >100 pmol) | Susceptibility to lysis by 2638A, day 1 ([8]; day 1): − (− = >100 pmol) | Susceptibility to lysis by 2638A, day 3+ ([8]; day 3+): − (− = >100 pmol) | Susceptibility to lysis by 2638A, day 1 ([9]; day 1): + (+ = 100 pmol) | Susceptibility to lysis by 2638A, day 3+ ([9]; day 3+): ++ (++ = 10 pmol) | Susceptibility to lysis by 2638A, day 1 ([10]; day 1): − (− = >100 pmol) | Susceptibility to lysis by 2638A, day 3+ ([10]; day 3+): − (− = >100 pmol) | Susceptibility to lysis by 2638A, day 1 ([11]; day 1): − (− = >100 pmol) | Susceptibility to lysis by 2638A, day 3+ ([11]; day 3+): ++ (++ = 10 pmol) | Susceptibility to lysis by 2638A, day 1 ([12]; day 1): − (− = >100 pmol) | Susceptibility to lysis by 2638A, day 3+ ([12]; day 3+): − (− = >100 pmol) | Susceptibility to lysis by 2638A, day 1 ([13]; day 1): − (− = >100 pmol) | Susceptibility to lysis by 2638A, day 3+ ([13]; day 3+): − (− = >100 pmol) | Susceptibility to lysis by 2638A, day 1 ([14]; day 1): − (− = >100 pmol) | Susceptibility to lysis by 2638A, day 3+ ([14]; day 3+): − (− = >100 pmol) | Susceptibility to lysis by 2638A, day 1 ([15]; day 1): − (− = >100 pmol) | Susceptibility to lysis by 2638A, day 3+ ([15]; day 3+): + (+ = 100 pmol) | Susceptibility to lysis by 2638A, day 1 ([16]; day 1): − (− = >100 pmol) | Susceptibility to lysis by 2638A, day 3+ ([16]; day 3+): + (+ = 100 pmol) | Susceptibility to lysis by 2638A, day 1 ([17]; day 1): − (− = >100 pmol) | Susceptibility to lysis by 2638A, day 3+ ([17]; day 3+): − (− = >100 pmol) | Susceptibility to lysis by 2638A, day 1 ([18]; day 1): − (− = >100 pmol) | Susceptibility to lysis by 2638A, day 3+ ([18]; day 3+): − (− = >100 pmol) | Susceptibility to lysis by 2638A, day 1 ([19]; day 1): − (− = >100 pmol) | Susceptibility to lysis by 2638A, day 3+ ([19]; day 3+): − (− = >100 pmol) | Susceptibility to lysis by 2638A, day 1 ([20]; day 1): − (− = >100 pmol) | Susceptibility to lysis by 2638A, day 3+ ([20]; day 3+): − (− = >100 pmol) | Susceptibility to lysis by 2638A, day 1 ([21]; day 1): − (− = >100 pmol) | Susceptibility to lysis by 2638A, day 3+ ([21]; day 3+): + (+ = 100 pmol) | Susceptibility to lysis by 2638A, day 1 ([22]; day 1): +++ (+++ = 1 pmol) | Susceptibility to lysis by 2638A, day 3+ ([22]; day 3+): +++ (+++ = 1 pmol) | Susceptibility to lysis by 2638A, day 1 ([23]; day 1): − (− = >100 pmol) | Susceptibility to lysis by 2638A, day 3+ ([23]; day 3+): − (− = >100 pmol) | Susceptibility to lysis by 2638A, day 1 ([24]; day 1): − (− = >100 pmol) | Susceptibility to lysis by 2638A, day 3+ ([24]; day 3+): ++ (++ = 10 pmol) | Susceptibility to lysis by 2638A, day 1 ([25]; day 1): − (− = >100 pmol) | Susceptibility to lysis by 2638A, day 3+ ([25]; day 3+): − (− = >100 pmol) | Susceptibility to lysis by 2638A, day 1 ([26]; day 1): − (− = >100 pmol) | Susceptibility to lysis by 2638A, day 3+ ([26]; day 3+): − (− = >100 pmol) | Susceptibility to lysis by 2638A, day 1 ([27]; day 1): − (− = >100 pmol) | Susceptibility to lysis by 2638A, day 3+ ([27]; day 3+): − (− = >100 pmol) | Susceptibility to lysis by 2638A, day 1 ([28]; day 1): − (− = >100 pmol) | Susceptibility to lysis by 2638A, day 3+ ([28]; day 3+): + (+ = 100 pmol) | Susceptibility to lysis by 2638A, day 1 ([29]; day 1): − (− = >100 pmol) | Susceptibility to lysis by 2638A, day 3+ ([29]; day 3+): + (+ = 100 pmol) | % Survival ([30]; 0 hours, Balb/c mice, I.P. 4×10^7 CFU, treated 30 min post infection: 2638A 200 μg/mouse I.P., Vancomycin 375 μg/mouse s.c., Oxacillin 1250 μg/mouse s.c.): 100% | % Survival ([30]; 4 hours, same model and doses): 100% | % Survival ([30]; 8 hours, same model and doses): 100% | % Survival ([30]; 12 hours, same model and doses): 100% | % Survival ([30]; 16 hours, same model and doses): 100% | % Survival ([30]; 20 hours, same model and doses): 100% | % Survival ([30]; 24 hours, same model and doses): 100% | % Survival ([30]; 28 hours, same model and doses): 100% | % Survival ([30]; 32 hours, same model and doses): 100% | % Survival ([30]; 36 hours, same model and doses): 100% | % Survival ([30]; 40 hours, same model and doses): 100% | % Survival ([30]; 44 hours, same model and doses): 100% | % Survival ([30]; 48 hours (end of the experiment), same model and doses): 100% | septicemia score at the end of the experiment ([30]; 48 hours, score 0-5 per Table 4): 0 | Mean NRS382 Titer in the Blood ([30]; Recovered 48 hr post infection from surviving mice, same doses): 0.8 ± 1.9 × 10^1 CFU/ml
